According to patent US20230250157A1:

Assays:
Experiment in all cases: ELISA
BM4831 RBD = target: BM4831 RBD
BtKY72 RBD = target: BtKY72 RBD
Khosta2 RBD = target: Khosta2 RBD
LyRa3 RBD = target: LyRa3 RBD
Pang17 RBD = target: Pang17 RBD
RaTG13 RBD = target: RaTG13 RBD
Rf1 RBD = target: Rf1 RBD
RmYN02 RBD = target: RmYN02 RBD
Rs4081 RBD = target: Rs4081 RBD
SHC014 RBD = target: SHC014 RBD
Yun11 RBD = target: Yun11 RBD
RsSTT200 RBD = target: RsSTT200 RBD

Measured: EC50

C144 IgG
not listed: RsSTT200 RBD
> 10 µg/mL: all other assays above

S309 IgG
> 10 µg/mL: BtKY72 RBD | Rf1 RBD | RmYN02 RBD | Rs4081 RBD | Yun11 RBD

C102 IgG
not listed: RaTG13 RBD
> 10 µg/mL: all other assays above
